Experimental data reported in patent US20240043505A1.

Biological target: SARS-CoV-2 RBD E484K mutant (SARS-CoV-2), P0DTC2
Conditions: remark: other sources report otherwise

B1: Nb21 (VHH)
VHH: QVQLVESGGGLVQAGGSLRLSCAVSGLGAHRVGWFRRAPGKEREFVAAIGANGGNTNYLDSVKGRFTISRDNAKNTIYLQMNSLKPQDTAVYYCAARDIETAEYTYWGQGTQVTVSS
binding affinity fold change relative to RBD WT: < -1000 fold
